Source: publication PMC3098940 (ACS chemical biology, 2011)

Biological target: the molecule itself
Assay: SEC

B1: phosphorylated Stat3β (residues 127-722), wildtype (domain or fragment, murine, UniProt P42227-2 127-722, looked up)
chain: GQANHPTAAVVTEKQQMLEQHLQDVRKRVQDLEQKMKVVENLQDDFDFNYKTLKSQGDMQDLNGNNQSVTRQKMQQLEQMLTALDQMRRSIVSELAGLLSAMEYVQKTLTDEELADWKRRQQIACIGGPPNICLDRLENWITSLAESQLQTRQQIKKLEELQQKVSYKGDPIVQHRPMLEERIVELFRNLMKSAFVVERQPCMPMHPDRPLVIKTGVQFTTKVRLLVKFPELNYQLKIKVCIDKDSGDVAALRGSRKFNILGTNTKVMNMEESNNGSLSAEFKHLTLREQRCGNGGRANCDASLIVTEELHLITFETEVYHQGLKIDLETHSLPVVVISNICQMPNAWASILWYNMLTNNPKNVNFFTKPPIGTWDQVAEVLSWQFSSTTKRGLSIEQLTTLAEKLLGPGVNYSGCQITWAKFCKENMAGKGFSFWVWLDNIIDLVKKYILALWNEGYIMGFISKERERAILSTKPPGTFLLRFSESSKEGGVTFTWVEKDISGKTQIQSVEPYTKQQLNNMSFAEIIMGYKIMDATNILVSPLVYLYPDIPKEEAFGKYCRPESQEHPEADPGSAAPYLKTKFICVTPFIDAVWK
modifications: phosphotyrosine at 705
  stoichiometry N: 2
